According to publication PMC12008302:

B1: α-L-iduronidase (hIDUA): M6P-IDUA (Endo-D, then Endo-M N175Q transglycosylation) (protein)
parent chain: MRPLRPRAALLALLASLLAAPPVAPAEAPHLVHVDAARALWPLRRFWRSTGFCPPLPHSQADQYVLSWDQQLNLAYVGAVPHRGIKQVRTHWLLELVTTRGSTGRGLSYNFTHLDGYLDLLRENQLLPGFELMGSASGHFTDFEDKQQVFEWKDLVSSLARRYIGRYGLAHVSKWNFETWNEPDHHDFDNVSMTMQGFLNYYDACSEGLRAASPALRLGGPGDSFHTPPRSPLSWGLLRHCHDGTNFFTGEAGVRLDYISLHRKGARSSISILEQEKVVAQQIRQLFPKFADTPIYNDEADPLVGWSLPQPWRADVTYAAMVVKVIAQHQNLLLANTTSAFPYALLSNDNAFLSYHPHPFAQRTLTARFQVNNTRPPHVQLLRKPVLTAMGLLALLDEEQLWAEVSQAGTVLDSNHTVGVLASAHRPQGPADAWRAAVLIYASDDTRAHPNRSVAVTLRLRGVPPGPGLVYVTRYLDNGLCSPDGEWRRLGRPVFPTAEQFRRMRAAEDPVAAAPRPLPAGGRLTLRPALRLPSLLLVHVCARPEKPPGQVTRLRALPLTQGQLVLVWSDEHVGSKCLWTYEIQFSQDGKAYTPVSRKPSTFNLFVFSPDTGAVSGSYRVRALDYWARPGPFSDPVPYLEVPVPRGPPSPGNP
B2: α-L-iduronidase (hIDUA): M6P-IDUA (protein)
parent chain: MRPLRPRAALLALLASLLAAPPVAPAEAPHLVHVDAARALWPLRRFWRSTGFCPPLPHSQADQYVLSWDQQLNLAYVGAVPHRGIKQVRTHWLLELVTTRGSTGRGLSYNFTHLDGYLDLLRENQLLPGFELMGSASGHFTDFEDKQQVFEWKDLVSSLARRYIGRYGLAHVSKWNFETWNEPDHHDFDNVSMTMQGFLNYYDACSEGLRAASPALRLGGPGDSFHTPPRSPLSWGLLRHCHDGTNFFTGEAGVRLDYISLHRKGARSSISILEQEKVVAQQIRQLFPKFADTPIYNDEADPLVGWSLPQPWRADVTYAAMVVKVIAQHQNLLLANTTSAFPYALLSNDNAFLSYHPHPFAQRTLTARFQVNNTRPPHVQLLRKPVLTAMGLLALLDEEQLWAEVSQAGTVLDSNHTVGVLASAHRPQGPADAWRAAVLIYASDDTRAHPNRSVAVTLRLRGVPPGPGLVYVTRYLDNGLCSPDGEWRRLGRPVFPTAEQFRRMRAAEDPVAAAPRPLPAGGRLTLRPALRLPSLLLVHVCARPEKPPGQVTRLRALPLTQGQLVLVWSDEHVGSKCLWTYEIQFSQDGKAYTPVSRKPSTFNLFVFSPDTGAVSGSYRVRALDYWARPGPFSDPVPYLEVPVPRGPPSPGNP
B3: α-L-iduronidase (hIDUA): SG-IDUA (protein)
parent chain: MRPLRPRAALLALLASLLAAPPVAPAEAPHLVHVDAARALWPLRRFWRSTGFCPPLPHSQADQYVLSWDQQLNLAYVGAVPHRGIKQVRTHWLLELVTTRGSTGRGLSYNFTHLDGYLDLLRENQLLPGFELMGSASGHFTDFEDKQQVFEWKDLVSSLARRYIGRYGLAHVSKWNFETWNEPDHHDFDNVSMTMQGFLNYYDACSEGLRAASPALRLGGPGDSFHTPPRSPLSWGLLRHCHDGTNFFTGEAGVRLDYISLHRKGARSSISILEQEKVVAQQIRQLFPKFADTPIYNDEADPLVGWSLPQPWRADVTYAAMVVKVIAQHQNLLLANTTSAFPYALLSNDNAFLSYHPHPFAQRTLTARFQVNNTRPPHVQLLRKPVLTAMGLLALLDEEQLWAEVSQAGTVLDSNHTVGVLASAHRPQGPADAWRAAVLIYASDDTRAHPNRSVAVTLRLRGVPPGPGLVYVTRYLDNGLCSPDGEWRRLGRPVFPTAEQFRRMRAAEDPVAAAPRPLPAGGRLTLRPALRLPSLLLVHVCARPEKPPGQVTRLRALPLTQGQLVLVWSDEHVGSKCLWTYEIQFSQDGKAYTPVSRKPSTFNLFVFSPDTGAVSGSYRVRALDYWARPGPFSDPVPYLEVPVPRGPPSPGNP
B4: α-L-iduronidase (hIDUA): SG-IDUA (Endo-CC N180H transglycosylation) (protein)
parent chain: MRPLRPRAALLALLASLLAAPPVAPAEAPHLVHVDAARALWPLRRFWRSTGFCPPLPHSQADQYVLSWDQQLNLAYVGAVPHRGIKQVRTHWLLELVTTRGSTGRGLSYNFTHLDGYLDLLRENQLLPGFELMGSASGHFTDFEDKQQVFEWKDLVSSLARRYIGRYGLAHVSKWNFETWNEPDHHDFDNVSMTMQGFLNYYDACSEGLRAASPALRLGGPGDSFHTPPRSPLSWGLLRHCHDGTNFFTGEAGVRLDYISLHRKGARSSISILEQEKVVAQQIRQLFPKFADTPIYNDEADPLVGWSLPQPWRADVTYAAMVVKVIAQHQNLLLANTTSAFPYALLSNDNAFLSYHPHPFAQRTLTARFQVNNTRPPHVQLLRKPVLTAMGLLALLDEEQLWAEVSQAGTVLDSNHTVGVLASAHRPQGPADAWRAAVLIYASDDTRAHPNRSVAVTLRLRGVPPGPGLVYVTRYLDNGLCSPDGEWRRLGRPVFPTAEQFRRMRAAEDPVAAAPRPLPAGGRLTLRPALRLPSLLLVHVCARPEKPPGQVTRLRALPLTQGQLVLVWSDEHVGSKCLWTYEIQFSQDGKAYTPVSRKPSTFNLFVFSPDTGAVSGSYRVRALDYWARPGPFSDPVPYLEVPVPRGPPSPGNP

Assays:
[1] = intracellular IDUA activity 24 h after enzyme addition; settings: glycan changed form; control: HM-IDUA
[2] = AcidiFluor ORANGE live-cell imaging of lysosomal delivery; settings: glycan changed form; control: AFO-labeled HM-IDUA

Row | Protein | other: cellular uptake [1] | localisation_or_trafficking [2]
1 | B1 | increases | –
2 | B2 | – | increases
3 | B3 | – | increases
4 | B4 | increases | –
